T1: OX40 on OX40+ HEK293-NFkB-luciferase reporter stable cells (UniProt P43489 29-277)
T1 sequence (looked up): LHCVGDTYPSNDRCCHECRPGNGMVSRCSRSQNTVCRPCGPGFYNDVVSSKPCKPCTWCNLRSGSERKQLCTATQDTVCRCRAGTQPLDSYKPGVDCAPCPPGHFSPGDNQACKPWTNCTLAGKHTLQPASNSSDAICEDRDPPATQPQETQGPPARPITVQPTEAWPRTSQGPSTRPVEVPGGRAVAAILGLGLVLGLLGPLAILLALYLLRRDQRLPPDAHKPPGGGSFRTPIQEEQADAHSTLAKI

B1: OX1C4 (antibody, V domains shown)
VH: EVQLVESGAEVKKPGASVKVSCKTSGYTFTGYYLHWVRQAPGQGLEWMGIINPGDGSTRNAQKFEGRVTMTRDTSTSTVYMELSSLSPEDTAVYYCARDLEYIGSGSLSWFDPWGQGTLVTVSS
VL: LPVLTQPASVSGSPGQSITISCSGTSSDFLTYDLVSWYKQQPGKAPKLMIYDVNKRPSGVSDRFSGSKSGNTASLTISGLQAADEADYYCSSYTSSSTPYVFGTGTKVTVL
B2: OX4D7 (antibody, V domains shown)
VH: QVQLVQSGAEVKKPGASVKVSCKASGYTFTSYYMHWVRQAPGQGLEWMGIINPSGGSTSYAQKFQGRVTMTTDTSTSTAYMELRSLRSDDTAVYYCARDPYSSSWYGAEYFQHWGQGTLVTVSS
VL: QSVLTQPRSVSGSPGQSVTISCTGTSSDGGDYNYVSWYQQHPGQAPKLLIYEVSNRPSGVSNRFSGSKSGNTASLTISGLQAEDEADYYCSSYTSSSTLVVFGGGTKLTVL
B3: OX1D9 (antibody, V domains shown)
VH: QVQLVQSGAEVKKPGASVKVSCKASGYTFTSYGISWVRQALGQRLEWLGWINAGDGETKYSPKFQGRVTITRDTSASTAYMDLSGLTSEDTAVYYCARDFLSTMDYWGQGTLVTVSS
VL: DVVMTQSPSSLSASVGDRVTITCQASQDISNYLNWYQQKPGKAPKLLIYDASNLETGVPSRFSGGGSGTDFTFTISSLQPEDIATYYCQQFDNLPYTFGQGTKVEIK
B4: OX1B2 (antibody, V domains shown)
VH: QVQLVQSGAEVKKPGASVKVSCKASGYTFTSYYMHWVRQAPGQGLEWMGIINPSGGSTSYAQKFQGRVTMTRDTSTSTVYMELSSLRSEDTAVYYCARDYYDSSGYSDYGMDVWGQGTTVTVSS
VL: DIVMTQSPSSLSASVGDRVTITCRASQSISSYLNWYQQKPGKAPKLLIYAASSLQSGVPSRFSGSGSGTDFTLTISSLQPEDFAIYYCQQNYNTRQVTFGQGTRLEIK

What follows are binders tested against T1, OX40 on OX40+ HEK293-NFkB-luciferase … (assay: cell-based or functional assay).
B1 was tested, and the “luciferase activity (RLUs) of OX40+ HEK293-NFkB-luciferase reporter cells, ~6 h stimulation, antibody at 20 µg/ml” value (“luciferase activity (RLUs)” for short) was > 50 % of signal observed with purified rhOX40L+anti-His.
B2 was tested, and the “luciferase activity (RLUs)” value was > 50 % of signal observed with purified rhOX40L+anti-His.
With B3 the “luciferase activity (RLUs)” value was > 50 % of signal observed with purified rhOX40L+anti-His.
With B4 the “luciferase activity (RLUs)” value was > 50 % of signal observed with purified rhOX40L+anti-His.

Reference: patent US20190177422A1 (SORRENTO THERAPEUTICS, published 2019)
